Like-named read-outs stand apart in the source and are kept apart here.
Tests used:
[1] = molecular target: human IL2Rγ (endogenously expressed on cells) (human) (UniProt P31785); assay: cell-based or functional assay
[2] = molecular target: human IL2Rγ (endogenously expressed on cells) (human) (UniProt P31785); assay: cell-based or functional assay; remark: listed apart in the source
[3] = molecular target: human IL-2Rγ endogenously expressed on NK-92 and Jurkat cells (human) (UniProt P31785); assay: flow cytometry, 10 ug/ml isotype control, Jurkat cells (endogenous human IL-2Rg)
Chain of human IL-2Rγ endogenously expressed on NK-92 and Jurkat cells (human) (P31785 23-369): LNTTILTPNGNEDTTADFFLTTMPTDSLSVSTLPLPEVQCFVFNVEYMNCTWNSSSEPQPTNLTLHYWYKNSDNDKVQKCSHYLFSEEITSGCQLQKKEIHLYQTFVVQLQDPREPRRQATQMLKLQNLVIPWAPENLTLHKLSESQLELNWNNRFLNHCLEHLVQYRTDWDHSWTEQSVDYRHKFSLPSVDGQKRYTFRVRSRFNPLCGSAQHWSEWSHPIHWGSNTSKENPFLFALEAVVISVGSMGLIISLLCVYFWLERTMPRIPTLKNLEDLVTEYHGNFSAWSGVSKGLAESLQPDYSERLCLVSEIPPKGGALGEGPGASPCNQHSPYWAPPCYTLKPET

[4] = molecular target: human IL-2Rγ endogenously expressed on NK-92 and Jurkat cells (human) (UniProt P31785); assay: flow cytometry, 10 ug/ml isotype control, NK-92 cells (endogenous human IL-2Rg)
[5] = molecular target: human IL-2Rγ endogenously expressed on NK-92 and Jurkat cells (human) (UniProt P31785); assay: as above; remark: listed apart in the source
[6] = molecular target: human IL-2Rγ expressed on cells (human) (UniProt P31785); assay: flow cytometry, isotype control at 10 µg/ml, MFI over unstained; upper end (NK-92 by Table 9-1)
Chain of human IL-2Rγ expressed on cells (human) (P31785 23-369): as above

[7] = molecular target: human IL-2Rγ expressed on cells (human) (UniProt P31785); assay: flow cytometry, isotype control at 10 µg/ml, MFI over unstained; lower end (Jurkat by Table 9-1)
[8] = molecular target: human IL-2Rγ expressed on cells (human) (UniProt P31785); assay: flow cytometry on NK-92 cells, isotype control at 10 µg/ml, MFI over unstained; the end 2 belongs to HEK293 (negative control cells) by Table 9-2
[9] = molecular target: mouse IL-2Rγ endogenously expressed on MC/9 cells (mouse) (UniProt P34902); assay: flow cytometry, 10 ug/ml isotype control, MC/9 cells (endogenous mouse IL-2Rg)
Chain of mouse IL-2Rγ endogenously expressed on MC/9 cells (mouse) (P34902 23-369): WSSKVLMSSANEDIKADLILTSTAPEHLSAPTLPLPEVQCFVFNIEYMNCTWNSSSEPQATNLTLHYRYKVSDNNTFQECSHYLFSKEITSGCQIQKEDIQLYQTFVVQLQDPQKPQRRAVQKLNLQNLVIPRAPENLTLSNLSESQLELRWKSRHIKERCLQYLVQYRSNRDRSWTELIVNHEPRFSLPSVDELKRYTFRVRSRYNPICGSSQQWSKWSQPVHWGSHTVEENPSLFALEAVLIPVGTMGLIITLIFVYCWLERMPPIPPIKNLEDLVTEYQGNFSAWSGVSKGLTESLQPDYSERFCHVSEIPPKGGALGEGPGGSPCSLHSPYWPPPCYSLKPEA

[10] = molecular target: human IL-2Rγ endogenously expressed on NK-92 and Jurkat cells (human) (UniProt P31785); assay: flow cytometry, secondary antibody alone (no primary), Jurkat cells (endogenous human IL-2Rg)
[11] = molecular target: mouse IL-2Rγ endogenously expressed on MC/9 cells (mouse) (UniProt P34902); assay: flow cytometry, secondary antibody alone (no primary), MC/9 cells (endogenous mouse IL-2Rg)
[12] = molecular target: human IL-2Rγ endogenously expressed on NK-92 and Jurkat cells (human) (UniProt P31785); assay: flow cytometry, secondary antibody alone (no primary), NK-92 cells (endogenous human IL-2Rg)
[13] = molecular target: human IL-2Rγ endogenously expressed on NK-92 and Jurkat cells (human) (UniProt P31785); assay: as above; remark: listed apart in the source

Chain of human IL2Rγ (endogenously expressed on cells) (human) (P31785 23-369): as the sequence (P31785 23-369) above

## human IL-15 (from UniProt P40933 49-162) (ligand)
[1]
  EC50; IL-15 dose response; NK92/hIL7R/STAT3-luc: 0.23 nM
[2]
  EC50; IL-15 dose response; NK92/hIL7R/STAT3-luc: 0.15 nM

## REGN1945 (antibody)
[3]
  Binding Ratio (Sample over unstained MFIs): 1
  Raw MFI: 92 MFI
[4]
  Binding Ratio (Sample over unstained MFIs): 13
  Raw MFI: 1890 MFI
[5]
  Binding Ratio (Sample over unstained MFIs): 1
  Raw MFI: 223 MFI
[6]
  binding ratio: 13
[7]
  binding ratio: 1
[8]
  binding ratio: 1
[9]
  Binding Ratio (Sample over unstained MFIs): 1
  Raw MFI: 196 MFI

## human IL-21 (from UniProt Q9HBE4 32-162) (ligand)
[1]
  EC50; IL-21 dose response; NK92/hIL7R/STAT3-luc: 0.006 nM
[2]
  EC50; IL-21 dose response; NK92/hIL7R/STAT3-luc: 0.0031 nM

## human IL-9 (from UniProt P15248 19-144) (ligand)
[1]
  EC50; IL-9 dose response; NK92/hIL7R/STAT3-luc: 0.033 nM
[2]
  EC50; IL-9 dose response; NK92/hIL7R/STAT3-luc: 0.02 nM

## human IL-2 (from UniProt P60568 21-153) (ligand)
[1]
  EC50; IL-2 dose response; NK92/hIL7R/STAT3-luc: 0.045 nM
[2]
  EC50; IL-2 dose response; NK92/hIL7R/STAT3-luc: 0.033 nM

## anti-human antibody conjugated to allophycocyanin (APC) (Jackson ImmunoResearch, #109-136-170)
[10]
  Binding Ratio (Sample over unstained MFIs): 1
  Raw MFI: 80 MFI
[11]
  Binding Ratio (Sample over unstained MFIs): 1
  Raw MFI: 173 MFI
[12]
  Binding Ratio (Sample over unstained MFIs): 1
  Raw MFI: 210 MFI
[13]
  Raw MFI: 234 MFI
